US20180155451A1 (published 2018)

T1: FcγRIIb extracellular domain with C-terminal His tag (human, UniProt P31994 43-217)
T1 construct: extracellular domain; Expressed in FreeStyle293 cells and used as the analyte in Biacore; also called FcgRIIb; 2b; not shown: His tag attached to the C terminus
T1 sequence (looked up): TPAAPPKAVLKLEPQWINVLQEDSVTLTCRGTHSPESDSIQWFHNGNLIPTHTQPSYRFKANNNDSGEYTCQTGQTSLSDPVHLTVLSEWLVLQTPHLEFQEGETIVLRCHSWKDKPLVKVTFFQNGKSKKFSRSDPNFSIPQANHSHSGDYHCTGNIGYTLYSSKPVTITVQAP

T2: FcγRIIb extracellular domain with C-terminal His tag (human, UniProt P31994 43-217)
T2 construct: extracellular domain; Soluble receptor expressed in FreeStyle293 cells, used as analyte in Biacore; also called FcgRIIb; 2b; not shown: His tag attached to the C terminus
T2 sequence (looked up): T1 sequence (looked up)

B1: GpH7-A5/GpH7-B3 variant S267_10E/GpL16-k0 (He Ab) (antibody, human IgG1, kappa)
heavy 1: not shown
heavy 2: not shown
light: DIVMTQSPLSLPVTPGEPASISCQASESLVHSNRNTYLHWYLQKPGQSPQLLIYKVSNRFSGVPDRFSGSGSGTDFTLKISRVEAEDVGVYYCSQNTHVPPTFGQGTKVEIERTVAAPSVFIFPPSDEQLKSGTASVVCLLNNFYPREAKVQWKVDNALQSGNSQESVTEQDSKDSTYSLSSTLTLSKADYEKHKVYACEVTHQGLSSPVTKSFNRGEC
notes: Anti-glypican-3 heterodimerized IgG1 antibody; the mutation stands in only one H chain (the GpH7-B3 chain); also called S267E in one H chain
B2: GpH7-A5/GpH7-B3 variant S267_16H/GpL16-k0 (He Ab) (antibody, human IgG1, kappa)
heavy 1: not shown
heavy 2: not shown
light: B1 light
notes: Anti-glypican-3 heterodimerized IgG1 antibody; the mutation stands in only one H chain (the GpH7-B3 chain); also called S267H in one H chain
B3: GpH7-A5/GpH7-B3 variant H268_01G/GpL16-k0 (He Ab) (antibody, human IgG1, kappa)
heavy 1: not shown
heavy 2: not shown
light: B1 light
notes: Anti-glypican-3 heterodimerized IgG1 antibody; the mutation stands in only one H chain (the GpH7-B3 chain); also called H268G in one H chain
B4: GpH7-A5/GpH7-B3 variant H268_02A/GpL16-k0 (He Ab) (antibody, human IgG1, kappa)
heavy 1: not shown
heavy 2: not shown
light: B1 light
notes: Anti-glypican-3 heterodimerized IgG1 antibody; the mutation stands in only one H chain (the GpH7-B3 chain); also called H268A in one H chain
B5: GpH7-A5/GpH7-B3 variant H268_05P/GpL16-k0 (He Ab) (antibody, human IgG1, kappa)
heavy 1: not shown
heavy 2: not shown
light: B1 light
notes: Anti-glypican-3 heterodimerized IgG1 antibody; the mutation stands in only one H chain (the GpH7-B3 chain); also called H268P in one H chain
B6: GpH7-A5/GpH7-B3 variant P271_01G/GpL16-k0 (He Ab) (antibody, human IgG1, kappa)
heavy 1: not shown
heavy 2: not shown
light: B1 light
notes: Anti-glypican-3 heterodimerized IgG1 antibody; the mutation stands in only one H chain (the GpH7-B3 chain); also called P271G in one H chain
B7: GpH7-A5/GpH7-B3 variant H268_20W/GpL16-k0 (He Ab) (antibody, human IgG1, kappa)
heavy 1: not shown
heavy 2: not shown
light: B1 light
notes: Anti-glypican-3 heterodimerized IgG1 antibody; the mutation stands in only one H chain (the GpH7-B3 chain); also called H268W in one H chain
B8: GpH7-A5/GpH7-B3 variant S267_19Q/GpL16-k0 (He Ab) (antibody, human IgG1, kappa)
heavy 1: not shown
heavy 2: not shown
light: B1 light
notes: Anti-glypican-3 heterodimerized IgG1 antibody; the mutation stands in only one H chain (the GpH7-B3 chain); also called S267Q in one H chain
B9: GpH7-A5/GpH7-B3 variant P271_08L/GpL16-k0 (He Ab) (antibody, human IgG1, kappa)
heavy 1: not shown
heavy 2: not shown
light: B1 light
notes: Anti-glypican-3 heterodimerized IgG1 antibody; the mutation stands in only one H chain (the GpH7-B3 chain); also called P271L in one H chain
B10: GpH7-A5/GpH7-B3 variant S267_14T/GpL16-k0 (He Ab) (antibody, human IgG1, kappa)
heavy 1: not shown
heavy 2: not shown
light: B1 light
notes: Anti-glypican-3 heterodimerized IgG1 antibody; the mutation stands in only one H chain (the GpH7-B3 chain); also called S267T in one H chain
B11: GpH7-A5/GpH7-B3 variant S267_20W/GpL16-k0 (He Ab) (antibody, human IgG1, kappa)
heavy 1: not shown
heavy 2: not shown
light: B1 light
notes: Anti-glypican-3 heterodimerized IgG1 antibody; the mutation stands in only one H chain (the GpH7-B3 chain); also called S267W in one H chain
B12: GpH7-A5/GpH7-B3 variant H268_13S/GpL16-k0 (He Ab) (antibody, human IgG1, kappa)
heavy 1: not shown
heavy 2: not shown
light: B1 light
notes: Anti-glypican-3 heterodimerized IgG1 antibody; the mutation stands in only one H chain (the GpH7-B3 chain); also called H268S in one H chain
B13: GpH7-A5/GpH7-B3 variant H268_18N/GpL16-k0 (He Ab) (antibody, human IgG1, kappa)
heavy 1: not shown
heavy 2: not shown
light: B1 light
notes: Anti-glypican-3 heterodimerized IgG1 antibody; the mutation stands in only one H chain (the GpH7-B3 chain); also called H268N in one H chain
B14: GpH7-A5/GpH7-B3 variant S267_15Y/GpL16-k0 (He Ab) (antibody, human IgG1, kappa)
heavy 1: not shown
heavy 2: not shown
light: B1 light
notes: Anti-glypican-3 heterodimerized IgG1 antibody; the mutation stands in only one H chain (the GpH7-B3 chain); also called S267Y in one H chain
B15: GpH7-A5/GpH7-B3 variant I336_02A/GpL16-k0 (heterodimerized antibody, He Ab) (antibody, human IgG1, kappa)
heavy 1: not shown
heavy 2: not shown
light: B1 light
notes: Anti-glypican-3 IgG1 heterodimerized antibody; the alteration stands only in the GpH7-B3 chain; Positions in EU numbering; also called I336A

Target: T1, FcγRIIb extracellular domain with …
Assay: SPR (Biacore), antibody captured on antigen peptide chip, FcγR as analyte; bound amount against control heterodimerized antibody
Procedure: (§1) Analysis of interaction between objective antibody and the FcγR was carried out using Biacore T100 (GE Healthcare). HBS-EP+ (GE Healthcare) was used as the running buffer, and the measurement temperature was set to 25° C. Chips produced by immobilizing the antigen peptide by the amine coupling method to a Series S Sencor Chip CM5 (GE Healthcare), or alternatively, chips produced by allowing preliminarily biotinylated antigen peptides to interact with and immobilize onto a Series S Sensor Chip SA (certified) (GE Healthcare) were used. Antibodies of interest were captured onto an antigen peptide-immobilized chip, and allowed to interact to each FcγR diluted with running buffer. To regenerate and repeatedly use the chip, the antibodies captured on the chip were washed off by reacting 10 mM glycine-HCl, pH 1.5.
(§2) The FcγR-binding activity of each antibody was assessed primarily using as an indicator the FcγR-binding activity and dissociation constant for FcγR.

He/Con_2b (IIb binding) | Binder
379 relative binding activity, GpH7-A5/GpH7-B3/GpL16-k0 = 100 | B1
65.9 relative binding activity, GpH7-A5/GpH7-B3/GpL16-k0 = 100 | B2
144 relative binding activity, GpH7-A5/GpH7-B3/GpL16-k0 = 100 | B3
167 relative binding activity, GpH7-A5/GpH7-B3/GpL16-k0 = 100 | B4
116 relative binding activity, GpH7-A5/GpH7-B3/GpL16-k0 = 100 | B5
193 relative binding activity, GpH7-A5/GpH7-B3/GpL16-k0 = 100 | B6
111 relative binding activity, GpH7-A5/GpH7-B3/GpL16-k0 = 100 | B7
218 relative binding activity, GpH7-A5/GpH7-B3/GpL16-k0 = 100 | B8
103 relative binding activity, GpH7-A5/GpH7-B3/GpL16-k0 = 100 | B9
104 relative binding activity, GpH7-A5/GpH7-B3/GpL16-k0 = 100 | B10
57.2 relative binding activity, GpH7-A5/GpH7-B3/GpL16-k0 = 100 | B11
160 relative binding activity, GpH7-A5/GpH7-B3/GpL16-k0 = 100 | B12
156 relative binding activity, GpH7-A5/GpH7-B3/GpL16-k0 = 100 | B13
37.9 relative binding activity, GpH7-A5/GpH7-B3/GpL16-k0 = 100 | B14

Target: T3, FcγRIIIa extracellular domain with C-terminal His tag (human, UniProt P08637 17-208)
T3 construct: extracellular domain; also called FcgRIIIa; 3a; not shown: His tag attached to the C terminus
Assay: as above
Procedure: as §1, §2
T3 sequence (P08637 17-208): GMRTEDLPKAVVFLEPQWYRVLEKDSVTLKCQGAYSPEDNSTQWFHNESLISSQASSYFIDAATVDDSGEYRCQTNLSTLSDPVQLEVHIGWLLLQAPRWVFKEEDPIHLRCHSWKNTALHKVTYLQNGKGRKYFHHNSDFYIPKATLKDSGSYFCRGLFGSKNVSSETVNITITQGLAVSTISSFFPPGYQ

He/Con_3a (IIIa binding) | Binder
91.9 relative binding activity, GpH7-A5/GpH7-B3/GpL16-k0 = 100 | B1
17.9 relative binding activity, GpH7-A5/GpH7-B3/GpL16-k0 = 100 | B2
96.7 relative binding activity, GpH7-A5/GpH7-B3/GpL16-k0 = 100 | B3
122 relative binding activity, GpH7-A5/GpH7-B3/GpL16-k0 = 100 | B4
76.4 relative binding activity, GpH7-A5/GpH7-B3/GpL16-k0 = 100 | B5
113 relative binding activity, GpH7-A5/GpH7-B3/GpL16-k0 = 100 | B6
82.8 relative binding activity, GpH7-A5/GpH7-B3/GpL16-k0 = 100 | B7
65 relative binding activity, GpH7-A5/GpH7-B3/GpL16-k0 = 100 | B8
71 relative binding activity, GpH7-A5/GpH7-B3/GpL16-k0 = 100 | B9
45.6 relative binding activity, GpH7-A5/GpH7-B3/GpL16-k0 = 100 | B10
21.5 relative binding activity, GpH7-A5/GpH7-B3/GpL16-k0 = 100 | B11
122 relative binding activity, GpH7-A5/GpH7-B3/GpL16-k0 = 100 | B12
104 relative binding activity, GpH7-A5/GpH7-B3/GpL16-k0 = 100 | B13
11.8 relative binding activity, GpH7-A5/GpH7-B3/GpL16-k0 = 100 | B14

Target: T2, FcγRIIb extracellular domain with …
Assay: SPR (Biacore), antibody captured via antigen peptide, FcγR as analyte; binding amount relative to control heterodimerized antibody
Procedure: (§3) The heterodimerized antibodies He Abs in which one of the H chains was introduced with an alteration were assayed for their binding activities to each activating FcγR and inhibitory FcγR according to the method described in Example 4. […] The activating FcγRs in FIGS. 26, 27, 28, and 29 are FcγRIa, FcγRIIa (R), FcγRIIa (H), and FcγRIIIa, respectively.
as §1

He/Con_2b (IIb binding) | Binder
84.9 relative binding, GpH7-A5/GpH7-B3/GpL16-k0 = 100 | B15

Target: T4, FcγRIIIa extracellular domain with C-terminal His tag (human, UniProt P08637 17-208)
T4 construct: extracellular domain; Soluble receptor expressed in FreeStyle293 cells, used as analyte in Biacore; also called FcgRIIIa; 3a; not shown: His tag attached to the C terminus
Assay: as above
Procedure: as §3, §1
T4 sequence (P08637 17-208): as above

He/Con_3a (IIIa binding) | Binder
111 relative binding, GpH7-A5/GpH7-B3/GpL16-k0 = 100 | B15

Target: T4, FcγRIIIa extracellular domain with …
Assay: SPR (Biacore); ratio of He/Con_3a (FcγRIIIa) to He/Con_2b (FcγRIIb)
In short: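 Each FcγR was diluted in HBS-EP+ and injected at 25 °C over antibody held by an antigen-peptide sensor surface. Bound antibody was stripped with 10 mM glycine-HCl, pH 1.5, so chips could be reused.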

IIIa/IIb (He_3a/2b) [ratio] | Binder
1.31 | B15

Target: T3, FcγRIIIa extracellular domain with …
Assay: SPR (Biacore); relative FcγRIIIa binding divided by relative FcγRIIb binding of the same antibody
Procedure: as §1, §2

He_3a/2b (IIIa/IIb) | Binder
0.24 ratio of He/Con_3a to He/Con_2b | B1
0.27 ratio of He/Con_3a to He/Con_2b | B2
0.67 ratio of He/Con_3a to He/Con_2b | B3
0.73 ratio of He/Con_3a to He/Con_2b | B4
0.66 ratio of He/Con_3a to He/Con_2b | B5
0.59 ratio of He/Con_3a to He/Con_2b | B6
0.74 ratio of He/Con_3a to He/Con_2b | B7
0.3 ratio of He/Con_3a to He/Con_2b | B8
0.69 ratio of He/Con_3a to He/Con_2b | B9
0.44 ratio of He/Con_3a to He/Con_2b | B10
0.37 ratio of He/Con_3a to He/Con_2b | B11
0.76 ratio of He/Con_3a to He/Con_2b | B12
0.67 ratio of He/Con_3a to He/Con_2b | B13
0.31 ratio of He/Con_3a to He/Con_2b | B14
